{"source": "paper PMC11945212", "origin": "cited, not measured here", "molecular_target": "Adducin (Homo sapiens) (UniProt P35611)", "sequence (P35611 whole entry, chain 1 of 2)": "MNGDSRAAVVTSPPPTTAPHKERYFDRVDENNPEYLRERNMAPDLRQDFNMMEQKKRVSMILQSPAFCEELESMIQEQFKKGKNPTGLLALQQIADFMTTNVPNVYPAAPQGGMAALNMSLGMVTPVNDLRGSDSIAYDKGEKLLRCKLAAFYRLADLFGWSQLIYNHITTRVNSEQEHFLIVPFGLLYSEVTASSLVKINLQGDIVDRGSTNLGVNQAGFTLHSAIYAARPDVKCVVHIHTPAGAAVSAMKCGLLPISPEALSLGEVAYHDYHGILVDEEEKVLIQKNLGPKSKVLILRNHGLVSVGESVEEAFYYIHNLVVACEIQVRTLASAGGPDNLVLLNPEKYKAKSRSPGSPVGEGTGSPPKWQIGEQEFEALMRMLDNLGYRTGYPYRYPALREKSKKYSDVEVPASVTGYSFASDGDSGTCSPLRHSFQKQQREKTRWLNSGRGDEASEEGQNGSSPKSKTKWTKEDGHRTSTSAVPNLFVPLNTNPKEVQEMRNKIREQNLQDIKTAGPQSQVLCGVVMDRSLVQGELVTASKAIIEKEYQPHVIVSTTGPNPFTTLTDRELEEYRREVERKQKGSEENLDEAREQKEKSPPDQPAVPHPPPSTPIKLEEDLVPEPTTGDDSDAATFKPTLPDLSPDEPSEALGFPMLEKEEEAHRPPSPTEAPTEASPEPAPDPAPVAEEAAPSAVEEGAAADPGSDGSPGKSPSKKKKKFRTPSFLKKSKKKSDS", "sequence (P35612 whole entry, chain 2 of 2, further chain)": "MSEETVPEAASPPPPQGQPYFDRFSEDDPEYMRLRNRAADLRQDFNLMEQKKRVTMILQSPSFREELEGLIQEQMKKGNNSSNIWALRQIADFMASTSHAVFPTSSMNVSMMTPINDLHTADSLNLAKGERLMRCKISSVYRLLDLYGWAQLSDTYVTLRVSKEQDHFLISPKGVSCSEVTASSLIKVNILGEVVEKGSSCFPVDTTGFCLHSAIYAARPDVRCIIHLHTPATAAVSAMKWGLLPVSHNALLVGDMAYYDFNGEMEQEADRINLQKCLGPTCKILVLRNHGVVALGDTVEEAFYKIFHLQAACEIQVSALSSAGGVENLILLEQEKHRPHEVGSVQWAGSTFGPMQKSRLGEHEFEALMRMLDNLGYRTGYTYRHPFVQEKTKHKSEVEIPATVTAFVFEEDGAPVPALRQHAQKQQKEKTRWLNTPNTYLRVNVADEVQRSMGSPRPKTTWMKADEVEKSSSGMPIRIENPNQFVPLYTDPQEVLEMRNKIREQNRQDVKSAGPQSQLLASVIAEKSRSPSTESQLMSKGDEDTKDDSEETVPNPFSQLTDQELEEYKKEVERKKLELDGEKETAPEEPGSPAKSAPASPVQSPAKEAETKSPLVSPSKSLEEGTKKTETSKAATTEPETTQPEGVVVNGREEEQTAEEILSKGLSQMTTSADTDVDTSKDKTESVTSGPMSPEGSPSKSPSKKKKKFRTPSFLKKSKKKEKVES"}
{"substance": "Band 3 (from UniProt P02730)", "values": [{"measurement": "Kd", "value": 100, "unit": "nM"}]}
